Measured values as given in patent US6759212B1, “Cell cycle-regulating proteins” (Chugai Seiyaku Kabushiki Kaisha, priority 1997, dated 2004).
Values joined by “and” are separate entries in the source; they are usually repeats but may differ in a detail not shown here. Equal entries are not always repeated.

Assays:
[1] = tested on: Mv1Lu cells; test: Abnormal cytokinesis: cells having two or more nuclei, tetracycline-inducible expression, Giemsa staining; type: cell-based, mink; settings: for percentage of cells having two or more nuclei to the total number of cells: Mv1Lu, 72 hours
Procedure: (§1) MvlLu cells carrying vector alone, wild-type FLAG-AIM-1 (WT) or FLAG-AIM-1 (K-R) were grown in the presence or absence of doxycycline (tetracycline analog) for 24 hours and then subjected to western blot with anti-FLAG antibody (FIG. 4A). […] In addition, the size of these cells was much larger than normal cells (FIGS. 4Bf and 5D). In these abnormal cells, however, spindle. functions including chromosome disjunction and late anaphase spindle elongation as well as nuclear division appeared unaffected (data not shown). This was further confirmed by flow cytometry (FACS) (FIG. 4C). […] Namely, apocytes appeared because karyokinesis advances but cytokinesis is inhibited.
Then, asynchronous cells transfected with vector alone (a, d), FLAG-AIM-1 (WT) (b, e) or FLAG-AIM-1 (K-R) (c, f) were grown with (a-c) or without (d-f) DOX for 72 hours and stained with Giemsa's solution. Results are shown in FIG. 4B, wherein upper panels are called as a, b and c from left to right, and lower panels are called as d, e and f from left to right.
(§2) (2) Abnormal Cytokinesis in Cells Expressing AIM-1 (K-R) Plasmid FLAG-AIM-1 (WT), FLAG-AIM-1 (K-R) or a control plasmid pEF/hygI was cotransfected with a reporter construct RSV-β-galactosidase at a ratio of 10:1 into NRK-49F cells and human diploid fibroblast KD cells (a kind gift of late Dr. Takeo Kakunaga) by Lipofectin method. After 24 hours, 1×10^3 cells were seeded per 60 mm dish, and 72 hours after transfection, cells were fixed in 1.25% glutaraldehyde/PBS and stained by a method described in literature (Shu et al., J.C.S. 108:2955-62, 1995) to observe expression of β-galactosidase. MvlLu cells were also tested under the conditions described in (1) B above.
1. The figures in the table mean the percentage of cells having two or more nuclei to β-galactosidase positive cells for NRK-49F cells and KD cells or the percentage of cells having two or more nuclei to the total number of cells for MvlLu cells. For each cell line, 160 or more cells were tested.

[2] = tested on: NRK-49F cells; test: Abnormal cytokinesis: cells having two or more nuclei after transient transfection; type: cell-based, rat; settings: 72 hours after transfection
Description: (§3) To confirm the generality of this observation, AIM-1 (WT) and AIM-1 (K-R) plasmids were transiently expressed in NRK-49F cells and human diploid fibroblast KD cells and the results were compared with those obtained in a control transfected with vector alone. These constructs were transfected into cell-s with a reporter construct […] to prepare β-galactosidase-expressing plasmids for use as a positive internal control for transfection (Table 1).
as §2
(§4) 1. The figures in the table mean the percentage of cells having two or more nuclei to β-galactosidase positive cells for NRK-49F cells and KD cells or the percentage of cells having two or more nuclei to the total number of cells for MvlLu cells. […]

[3] = tested on: human diploid fibroblast KD cells; test: as above; type: cell-based; settings: 72 hours after transfection
Description: as §3, §2, §4

[4] = tested on: Mv1Lu cells; test: Growth for 2 weeks with or without DOX, Giemsa staining; type: cell-based, mink; settings: grown 2 weeks with or without doxycycline
Procedure: The nuclei of these AIM-1 (K-R)-expressing cells divided 3 to 4 times during 4 to 5 days, resulting in more than 10 nuclei per cell (FIG. 5D).
Mv1Lu cells transfected with FLAG-AIM-1 (WT) or FLAG-AIM-1 (K-R) were grown with or without DOX for 2 weeks and stained with Giemsa's solution.

[5] = tested on: Mv1Lu cells; test: FACS analysis of DNA content (propidium iodide); type: cell-based, mink; settings: 72 hour-induction
Procedure: as §1
Cell samples were harvested and fixed with ethanol, stained with propidium iodide for FACS analysis.

B1: AIM-1 (K-R): kinase-inactive (dominant negative) FLAG-AIM-1 in which lysine at the 109-position was replaced by arginine, expressed from plasmid (protein, UniProt O55099 1-343, looked up, variant K109R)
Aurora kinase B: MAQKENVYPWPYGSKTSQSGLNTLPQRVLRKEPAVTPAQALMNRSNSQSTAVPGQKLTENKGATALQGSQSRQPFTIDNFEIGRPLGKGKFGNVYLAREKKSRFIVALRILFKSQIEKEGVEHQLRREIEIQAHLKHPNILQLYNYFYDQQRIYLILEYAPRGELYKELQKSGTFDEQRTATIMEELSDALMYCHKKKVIHRDIKPENLLLGLQGELKIADFGWSVHAPSLRRKTMCGTLDYLPPEMIEGRMHNEMVDLWCIGVLCYELMVGNPPFESPSHSETYRRIVKVDLKFPSSMPLGAKDLISKLLKHNPSQRLPLEQVSAHPWVRANSRRVLPPSAL
modifications: N-terminal FLAG tag
nuclei per cell ([1]; Mv1Lu cells expressing construct, during 4 to 5 days): more than 10 | percentage of cells having two or more nuclei to the total number of cells ([1]; DOX(+) (not induced)): 7.7% | percentage of cells having two or more nuclei to the total number of cells ([1]; DOX(−) (induced)): 68.4% | percentage of cells having two or more nuclei to the total number of cells ([1]; DOX(−) (induced), listed as FLAG-AIM-1 (K-R)): about 68% | percentage of cells having two or more nuclei to β-galactosidase positive cells [2]: 62% | percentage of cells having two or more nuclei to β-galactosidase positive cells [3]: 38% and 38.4% | effect on growth potency (mitotic inhibition) [4]: miotic inhibition was observed | cell population with 4N or 8N DNA / cell cycle pattern (FACS) [5]: dramatically increased
